The assay concerns the target T1, TcdB1 holotoxin (VPI10463 strain), recombinant full-length, from Bacillus megaterium (Clostridioides difficile (VPI10463 …, UniProt P18177 1-2366)).
T1 construct: source: Bacillus megaterium, purified as described previously
Kind of assay: BLI. The note with it: both partners purified.

B1: Repeat1-Fc (CSPG4 Repeat1, residues 410–551, fused to the N-terminus of human IgG1 Fc) (Fc fusion)
chain: ELPEPCVPEPGLPPVFANFTQLLTISPLVVAEGGTAWLEWRHVQPTLDLMEAELRKSQVLFSVTRGARHGELELDIPGAQARKMFTLLDVVNRKARFIHDGSEDTSDQLVLEVSVTARVPMPSCLRRGQTYLLPIQVNPVND
notes: also called CSPG4 decoy; source: FreeStyle HEK 293 cells, secreted, purified (Ni-NTA); not shown: Fc (human IgG1), C-terminal, kept
One may read the Kd as the free concentration of one partner at which half of the binding sites on the other are occupied at equilibrium, for simple one-to-one binding. As a reminder, the koff is the first-order rate constant of dissociation. The kon is the second-order rate constant of association. With B1, the Kd was about 15.2 nM, the dissociation rate constant (koff) was about 0.000108 s⁻¹ and the association rate constant (kon) is about 7060 M⁻¹ s⁻¹.

B2: His-tagged CSPG4 Repeat1 (residues 410–551), biotinylated (domain or fragment)
chain: ELPEPCVPEPGLPPVFANFTQLLTISPLVVAEGGTAWLEWRHVQPTLDLMEAELRKSQVLFSVTRGARHGELELDIPGAQARKMFTLLDVVNRKARFIHDGSEDTSDQLVLEVSVTARVPMPSCLRRGQTYLLPIQVNPVND
modifications: biotinylated using EZ-Link NHS-PEG4-Biotin at pH 6.5
notes: also called His-tagged Repeat1; source: FreeStyle HEK 293 cells, secreted, purified (Ni-NTA); not shown: 8xHis, N-terminal, kept
Regarding B2, the binding result is listed as “binds”.

B3: CSPG4^mini (human CSPG4 residues 30–764: two laminin G motifs and first two CSPG repeats) (domain or fragment)
chain: ASFFGENHLEVPVATALTDIDLQLQFSTSQPEALLLLAAGPADHLLLQLYSGRLQVRLVLGQEELRLQTPAETLLSDSIPHTVVLTVVEGWATLSVDGFLNASSAVPGAPLEVPYGLFVGGTGTLGLPYLRGTSRPLRGCLHAATLNGRSLLRPLTPDVHEGCAEEFSASDDVALGFSGPHSLAAFPAWGTQDEGTLEFTLTTQSRQAPLAFQAGGRRGDFIYVDIFEGHLRAVVEKGQGTVLLHNSVPVADGQPHEVSVHINAHRLEISVDQYPTHTSNRGVLSYLEPRGSLLLGGLDAEASRHLQEHRLGLTPEATNASLLGCMEDLSVNGQRRGLREALLTRNMAAGCRLEEEEYEDDAYGHYEAFSTLAPEAWPAMELPEPCVPEPGLPPVFANFTQLLTISPLVVAEGGTAWLEWRHVQPTLDLMEAELRKSQVLFSVTRGARHGELELDIPGAQARKMFTLLDVVNRKARFIHDGSEDTSDQLVLEVSVTARVPMPSCLRRGQTYLLPIQVNPVNDPPHIIFPHGSLMVILEHTQKPLGPEVFQAYDPDSACEGLTFQVLGTSSGLPVERRDQPGEPATEFSCRELEAGSLVYVHRGGPAQDLTFRVSDGLQASPPATLKVVAIRPAIQIHRSTGLRLAQGSAMPILPANLSVETNAVGQDVSVLFRVTGALQFGELQKQGAGGVEGAEWWATQAFHQRDVEQGRVRYLSTDPQHHAYDTVENLALEVQ
notes: source: FreeStyle HEK 293 cells, secreted, purified (Ni-NTA, Superdex-200)
For the molecule B3, the binding result is “binds”.
